Results from US20110300138A1 (published 2011).
Where two headings read alike, the source gives them in different places.

Legend:
Assay in all cases: cell-based or functional assay
[1] = target: TSHR with Glu107 mutated to Ala expressed in CHO cells (human) (UniProt P16473)
[2] = target: TSHR with Glu178 mutated to Ala expressed in CHO cells (human) (UniProt P16473)
[3] = target: TSHR with Tyr206 mutated to Ala (expressed in CHO cells) (human) (UniProt P16473)
[4] = target: TSHR with Lys183 mutated to Asp expressed in CHO cells (human) (UniProt P16473)
[5] = target: TSHR with Glu157 mutated to Ala, expressed in CHO cells (human) (UniProt P16473)
[6] = target: TSHR with Lys209 mutated to Ala (expressed in CHO cells) (human) (UniProt P16473)
[7] = target: TSHR with Asp232 mutated to Ala expressed in CHO cells (human) (UniProt P16473)
[8] = target: TSHR with Trp258 mutated to Ala (human) (UniProt P16473)
[9] = target: TSHR with Glu61 mutated to Ala, expressed in CHO cells (human) (UniProt P16473)
[10] = target: TSHR with His105 mutated to Ala (expressed in CHO cells) (human) (UniProt P16473)
[11] = target: TSHR with Glu251 mutated to Ala (human) (UniProt P16473)

TSHR with Tyr206 mutated to Ala (expressed in CHO cells) (human), sequence (P16473 other isoform, or with tags, fused parts or gaps limits assumed, change not shown): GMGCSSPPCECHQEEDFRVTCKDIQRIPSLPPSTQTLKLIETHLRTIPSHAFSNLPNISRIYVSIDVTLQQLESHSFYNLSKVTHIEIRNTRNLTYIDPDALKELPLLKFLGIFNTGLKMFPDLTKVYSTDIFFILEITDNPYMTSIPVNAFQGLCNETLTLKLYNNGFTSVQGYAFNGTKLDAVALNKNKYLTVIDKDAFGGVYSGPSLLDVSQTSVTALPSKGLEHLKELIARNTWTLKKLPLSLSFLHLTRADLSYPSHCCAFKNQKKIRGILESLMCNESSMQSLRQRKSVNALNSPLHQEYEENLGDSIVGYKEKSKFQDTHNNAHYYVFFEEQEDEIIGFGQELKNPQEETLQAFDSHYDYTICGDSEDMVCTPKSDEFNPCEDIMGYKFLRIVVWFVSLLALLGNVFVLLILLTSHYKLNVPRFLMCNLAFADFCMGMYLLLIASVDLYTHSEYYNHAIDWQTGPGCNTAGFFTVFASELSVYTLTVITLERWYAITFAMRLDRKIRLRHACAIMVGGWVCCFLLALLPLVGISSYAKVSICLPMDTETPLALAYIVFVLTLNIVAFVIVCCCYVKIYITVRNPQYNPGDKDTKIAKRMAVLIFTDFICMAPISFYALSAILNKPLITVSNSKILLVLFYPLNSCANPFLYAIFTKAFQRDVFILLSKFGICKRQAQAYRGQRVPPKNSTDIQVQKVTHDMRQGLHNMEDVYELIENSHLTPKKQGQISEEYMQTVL
TSHR with Trp258 mutated to Ala (human), sequence (P16473 other isoform, or with tags, fused parts or gaps, change not shown): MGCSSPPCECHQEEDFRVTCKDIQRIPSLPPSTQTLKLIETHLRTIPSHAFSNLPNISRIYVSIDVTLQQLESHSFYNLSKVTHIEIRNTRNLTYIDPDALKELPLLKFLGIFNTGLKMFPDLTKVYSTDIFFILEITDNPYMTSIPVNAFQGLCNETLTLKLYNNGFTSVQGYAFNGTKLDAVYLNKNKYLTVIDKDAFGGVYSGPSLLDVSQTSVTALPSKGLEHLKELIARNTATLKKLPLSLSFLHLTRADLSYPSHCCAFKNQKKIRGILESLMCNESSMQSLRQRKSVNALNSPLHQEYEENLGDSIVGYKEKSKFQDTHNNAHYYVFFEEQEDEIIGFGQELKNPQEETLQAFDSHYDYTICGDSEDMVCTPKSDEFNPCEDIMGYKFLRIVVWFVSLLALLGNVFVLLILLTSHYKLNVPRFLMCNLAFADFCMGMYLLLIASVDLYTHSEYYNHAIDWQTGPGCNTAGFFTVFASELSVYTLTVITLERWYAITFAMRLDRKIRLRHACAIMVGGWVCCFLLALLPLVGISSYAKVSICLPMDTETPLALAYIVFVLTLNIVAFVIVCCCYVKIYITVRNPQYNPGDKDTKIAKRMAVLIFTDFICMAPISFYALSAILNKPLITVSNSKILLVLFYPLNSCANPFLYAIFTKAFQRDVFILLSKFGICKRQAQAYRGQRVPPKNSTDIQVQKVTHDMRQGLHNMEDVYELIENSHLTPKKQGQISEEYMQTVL
TSHR with Glu178 mutated to Ala expressed in CHO cells (human), sequence (P16473 other isoform, or with tags, fused parts or gaps, change not shown): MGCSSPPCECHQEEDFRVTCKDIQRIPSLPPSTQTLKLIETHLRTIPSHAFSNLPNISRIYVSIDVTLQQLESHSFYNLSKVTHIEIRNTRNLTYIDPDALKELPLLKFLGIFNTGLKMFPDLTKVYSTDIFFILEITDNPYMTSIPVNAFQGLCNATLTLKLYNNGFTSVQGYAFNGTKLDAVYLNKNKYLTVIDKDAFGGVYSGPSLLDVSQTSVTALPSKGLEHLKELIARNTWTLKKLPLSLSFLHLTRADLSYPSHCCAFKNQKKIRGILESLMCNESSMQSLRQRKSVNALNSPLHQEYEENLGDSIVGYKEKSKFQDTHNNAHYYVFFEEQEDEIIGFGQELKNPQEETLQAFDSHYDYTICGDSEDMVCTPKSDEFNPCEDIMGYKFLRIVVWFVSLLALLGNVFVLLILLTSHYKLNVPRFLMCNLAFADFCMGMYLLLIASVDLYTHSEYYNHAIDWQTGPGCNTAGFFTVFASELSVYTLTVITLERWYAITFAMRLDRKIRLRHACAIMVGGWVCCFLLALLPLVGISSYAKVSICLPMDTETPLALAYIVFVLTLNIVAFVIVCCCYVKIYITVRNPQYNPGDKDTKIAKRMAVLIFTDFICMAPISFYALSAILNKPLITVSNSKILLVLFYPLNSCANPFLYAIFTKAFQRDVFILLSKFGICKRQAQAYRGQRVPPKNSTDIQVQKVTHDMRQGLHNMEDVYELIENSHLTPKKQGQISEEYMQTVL
TSHR with Asp232 mutated to Ala expressed in CHO cells (human), sequence (P16473 other isoform, or with tags, fused parts or gaps limits assumed, change not shown): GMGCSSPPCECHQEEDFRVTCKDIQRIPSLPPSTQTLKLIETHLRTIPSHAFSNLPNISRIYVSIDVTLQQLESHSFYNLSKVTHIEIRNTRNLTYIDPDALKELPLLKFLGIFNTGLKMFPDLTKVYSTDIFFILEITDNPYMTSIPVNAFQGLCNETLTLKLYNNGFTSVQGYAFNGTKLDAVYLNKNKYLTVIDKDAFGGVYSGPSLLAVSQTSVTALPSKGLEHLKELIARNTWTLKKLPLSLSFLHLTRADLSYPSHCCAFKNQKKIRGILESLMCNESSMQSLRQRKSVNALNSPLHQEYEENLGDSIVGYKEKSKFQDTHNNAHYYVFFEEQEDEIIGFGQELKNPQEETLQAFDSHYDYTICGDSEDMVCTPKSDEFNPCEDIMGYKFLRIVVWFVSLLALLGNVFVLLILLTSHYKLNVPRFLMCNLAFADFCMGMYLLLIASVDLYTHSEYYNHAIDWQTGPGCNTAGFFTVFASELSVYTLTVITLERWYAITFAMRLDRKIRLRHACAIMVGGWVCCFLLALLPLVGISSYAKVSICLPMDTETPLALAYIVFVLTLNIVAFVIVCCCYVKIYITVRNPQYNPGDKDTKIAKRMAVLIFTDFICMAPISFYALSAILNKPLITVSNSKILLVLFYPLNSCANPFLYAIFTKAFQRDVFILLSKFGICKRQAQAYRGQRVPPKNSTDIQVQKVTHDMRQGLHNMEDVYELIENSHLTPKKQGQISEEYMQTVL
TSHR with Lys183 mutated to Asp expressed in CHO cells (human), sequence (P16473 other isoform, or with tags, fused parts or gaps limits assumed, change not shown): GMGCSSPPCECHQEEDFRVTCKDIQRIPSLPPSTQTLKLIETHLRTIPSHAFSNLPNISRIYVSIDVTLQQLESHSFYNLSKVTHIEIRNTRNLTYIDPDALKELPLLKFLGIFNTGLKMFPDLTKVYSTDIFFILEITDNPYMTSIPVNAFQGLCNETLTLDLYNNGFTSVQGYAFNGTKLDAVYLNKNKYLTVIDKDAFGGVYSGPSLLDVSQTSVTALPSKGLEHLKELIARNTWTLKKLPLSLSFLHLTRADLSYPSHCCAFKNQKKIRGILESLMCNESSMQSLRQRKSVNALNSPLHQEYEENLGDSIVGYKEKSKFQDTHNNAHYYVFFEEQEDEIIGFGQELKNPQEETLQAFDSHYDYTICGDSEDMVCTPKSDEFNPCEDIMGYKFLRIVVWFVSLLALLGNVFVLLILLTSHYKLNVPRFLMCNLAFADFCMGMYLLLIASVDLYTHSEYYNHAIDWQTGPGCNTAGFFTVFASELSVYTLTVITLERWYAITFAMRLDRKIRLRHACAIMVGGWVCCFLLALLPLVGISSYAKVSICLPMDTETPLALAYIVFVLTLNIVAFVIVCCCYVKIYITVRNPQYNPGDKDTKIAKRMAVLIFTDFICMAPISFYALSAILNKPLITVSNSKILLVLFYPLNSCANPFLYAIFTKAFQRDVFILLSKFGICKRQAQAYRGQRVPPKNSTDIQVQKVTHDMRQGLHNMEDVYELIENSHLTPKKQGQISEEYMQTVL
TSHR with Glu157 mutated to Ala, expressed in CHO cells (human), sequence (P16473 other isoform, or with tags, fused parts or gaps, change not shown): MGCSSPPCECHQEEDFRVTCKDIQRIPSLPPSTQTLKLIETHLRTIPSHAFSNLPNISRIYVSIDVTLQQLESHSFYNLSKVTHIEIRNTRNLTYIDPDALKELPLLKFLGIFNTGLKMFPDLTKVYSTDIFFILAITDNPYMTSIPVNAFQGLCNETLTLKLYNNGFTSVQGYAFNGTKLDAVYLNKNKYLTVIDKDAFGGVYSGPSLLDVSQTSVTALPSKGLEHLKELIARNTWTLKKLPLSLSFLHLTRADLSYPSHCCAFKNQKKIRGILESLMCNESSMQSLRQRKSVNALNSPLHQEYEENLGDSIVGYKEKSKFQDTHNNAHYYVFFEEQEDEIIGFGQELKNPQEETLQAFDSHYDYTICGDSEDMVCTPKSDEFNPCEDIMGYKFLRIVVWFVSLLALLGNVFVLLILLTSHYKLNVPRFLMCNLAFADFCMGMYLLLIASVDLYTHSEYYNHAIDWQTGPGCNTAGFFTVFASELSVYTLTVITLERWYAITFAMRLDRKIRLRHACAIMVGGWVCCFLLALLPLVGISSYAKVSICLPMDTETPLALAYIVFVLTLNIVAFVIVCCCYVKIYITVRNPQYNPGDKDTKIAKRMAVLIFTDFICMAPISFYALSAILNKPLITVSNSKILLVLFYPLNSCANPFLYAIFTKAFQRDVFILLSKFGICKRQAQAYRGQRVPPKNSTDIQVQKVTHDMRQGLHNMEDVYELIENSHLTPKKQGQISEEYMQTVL

TSH (ligand)
% inhibition of TSH stimulation; TSH (2) [1]: 12% | Cyclic AMP produced, mutated TSHR, TSH 0.01 ng/mL [1]: 8.2 pmol/mL | Cyclic AMP produced, mutated TSHR, TSH 0.03 ng/mL [1]: 8.92 pmol/mL | Cyclic AMP produced, mutated TSHR, TSH 0.1 ng/mL [1]: 8.24 pmol/mL | Cyclic AMP produced, mutated TSHR, TSH 0.3 ng/mL [1]: 15.7 pmol/mL | Cyclic AMP produced, mutated TSHR, TSH 1 ng/mL [1]: 30.2 pmol/mL | Cyclic AMP produced, mutated TSHR, TSH 3 ng/mL [1]: 43.9 pmol/mL | Cyclic AMP produced; TSH 3 ng/mL [1]: 83.7 pmol/mL | Cyclic AMP produced; TSH (2) [1]: 73.2 pmol/mL | Mutated/Wild type (%) of cyclic AMP produced, TSH 0.01 ng/mL [1]: 582% | Mutated/Wild type (%) of cyclic AMP produced, TSH 0.03 ng/mL [1]: 448% | Mutated/Wild type (%) of cyclic AMP produced, TSH 0.1 ng/mL [1]: 149% | Mutated/Wild type (%) of cyclic AMP produced, TSH 0.3 ng/mL [1]: 97% | Mutated/Wild type (%) of cyclic AMP produced, TSH 1 ng/mL [1]: 68% | Mutated/wild type (%) of cyclic AMP produced; TSH 3 ng/mL [1]: 82% | Mutated/wild type (%) of cyclic AMP produced; TSH (2) [1]: 78% | Mutated/wild type (%) of cyclic AMP produced; TSH 3 ng/mL ([1]; record 2): 110% | Mutated/Wild type (%) of cyclic AMP produced, TSH 0.01 ng/mL [2]: 467% | Mutated/Wild type (%) of cyclic AMP produced, TSH 0.03 ng/mL [2]: 240% | Mutated/Wild type (%) of cyclic AMP produced, TSH 0.1 ng/mL [2]: 115% | Mutated/Wild type (%) of cyclic AMP produced, TSH 0.3 ng/mL [2]: 71% | Mutated/Wild type (%) of cyclic AMP produced, TSH 1 ng/mL [2]: 54% | Mutated/Wild type (%) of cyclic AMP produced, TSH 0.01 ng/mL, Experiment 1 [3]: 83% | Mutated/Wild type (%) of cyclic AMP produced, TSH 0.01 ng/mL, Experiment 2 [3]: 135% | Mutated/Wild type (%) of cyclic AMP produced, TSH 0.03 ng/mL, Experiment 1 [3]: 124% | Mutated/Wild type (%) of cyclic AMP produced, TSH 0.03 ng/mL, Experiment 2 [3]: 144% | Mutated/Wild type (%) of cyclic AMP produced, TSH 0.1 ng/mL, Experiment 1 [3]: 93% | Mutated/Wild type (%) of cyclic AMP produced, TSH 0.1 ng/mL, Experiment 2 [3]: 178% | Mutated/Wild type (%) of cyclic AMP produced, TSH 0.3 ng/mL, Experiment 1 [3]: 104% | Mutated/Wild type (%) of cyclic AMP produced, TSH 0.3 ng/mL, Experiment 2 [3]: 110% | Mutated/Wild type (%) of cyclic AMP produced, TSH 1 ng/mL, Experiment 1 [3]: 66% | Mutated/Wild type (%) of cyclic AMP produced, TSH 1 ng/mL, Experiment 2 [3]: 93% | Mutated/wild type (%) of cyclic AMP produced; TSH 3 ng/mL; Experiment 1 [3]: 62% | Mutated/wild type (%) of cyclic AMP produced; TSH 3 ng/mL; Experiment 2 [3]: 97% | Cyclic AMP produced (pmol/mL), mutated TSHR, TSH 0.01 ng/mL [4]: 4.08 pmol/mL | Cyclic AMP produced (pmol/mL), mutated TSHR, TSH 0.03 ng/mL [4]: 7.18 pmol/mL | Cyclic AMP produced (pmol/mL), mutated TSHR, TSH 0.1 ng/mL [4]: 19.1 pmol/mL | Cyclic AMP produced (pmol/mL), mutated TSHR, TSH 0.3 ng/mL [4]: 51.7 pmol/mL | Cyclic AMP produced (pmol/mL), mutated TSHR, TSH 1 ng/mL [4]: 93.3 pmol/mL | Cyclic AMP produced (pmol/mL), mutated TSHR, TSH 3 ng/mL [4]: 106 pmol/mL | Mutated/Wild type (%), TSH 0.01 ng/mL [4]: 165% | Mutated/Wild type (%), TSH 0.03 ng/mL [4]: 155% | Mutated/Wild type (%), TSH 0.1 ng/mL [4]: 109% | Mutated/Wild type (%), TSH 0.3 ng/mL [4]: 128% | Mutated/Wild type (%), TSH 1 ng/mL [4]: 101% | Mutated/Wild type (%), TSH 3 ng/mL [4]: 102% | Mutated/Wild type (%) of cyclic AMP produced, TSH 0.01 ng/mL [5]: 450% | Mutated/Wild type (%) of cyclic AMP produced, TSH 0.03 ng/mL [5]: 328% | Mutated/Wild type (%) of cyclic AMP produced, TSH 0.1 ng/mL [5]: 164% | Mutated/Wild type (%) of cyclic AMP produced, TSH 0.3 ng/mL [5]: 118% | Mutated/Wild type (%) of cyclic AMP produced, TSH 1 ng/mL [5]: 86% | Mutated/wild type (%) of cyclic AMP produced; TSH 3 ng/mL [5]: 115% | Mutated/Wild type (%) of cyclic AMP produced, TSH 0.01 ng/mL [6]: 171% | Mutated/Wild type (%) of cyclic AMP produced, TSH 0.03 ng/mL [6]: 128% | Mutated/Wild type (%) of cyclic AMP produced, TSH 0.1 ng/mL [6]: 65% | Mutated/Wild type (%) of cyclic AMP produced, TSH 0.3 ng/mL [6]: 64% | Mutated/Wild type (%) of cyclic AMP produced, TSH 1 ng/mL [6]: 45% | Cyclic AMP produced, mutated TSHR, TSH 0.01 ng/mL (Experiment 1) [7]: 1.4 pmol/mL | Cyclic AMP produced, mutated TSHR, TSH 0.01 ng/mL (Experiment 2) [7]: 2.58 pmol/mL | Cyclic AMP produced, mutated TSHR, TSH 0.03 ng/mL (Experiment 1) [7]: 2.16 pmol/mL | Cyclic AMP produced, mutated TSHR, TSH 0.03 ng/mL (Experiment 2) [7]: 4.1 pmol/mL | Cyclic AMP produced, mutated TSHR, TSH 0.1 ng/mL (Experiment 1) [7]: 5.39 pmol/mL | Cyclic AMP produced, mutated TSHR, TSH 0.1 ng/mL (Experiment 2) [7]: 9.44 pmol/mL | Cyclic AMP produced, mutated TSHR, TSH 0.3 ng/mL (Experiment 1) [7]: 15.1 pmol/mL | Cyclic AMP produced, mutated TSHR, TSH 0.3 ng/mL (Experiment 2) [7]: 23.5 pmol/mL | Cyclic AMP produced, mutated TSHR, TSH 1 ng/mL (Experiment 1) [7]: 31.9 pmol/mL | Cyclic AMP produced, mutated TSHR, TSH 1 ng/mL (Experiment 2) [7]: 44.4 pmol/mL | Cyclic AMP produced, mutated TSHR, TSH 3 ng/mL (Experiment 1) [7]: 41 pmol/mL | Cyclic AMP produced, mutated TSHR, TSH 3 ng/mL (Experiment 2) [7]: 62 pmol/mL | Mutated/Wild type (%) of cyclic AMP produced, TSH 0.01 ng/mL, Experiment 1 [7]: 83% | Mutated/Wild type (%) of cyclic AMP produced, TSH 0.01 ng/mL, Experiment 2 [7]: 62% | Mutated/Wild type (%) of cyclic AMP produced, TSH 0.03 ng/mL, Experiment 1 [7]: 88% | Mutated/Wild type (%) of cyclic AMP produced, TSH 0.03 ng/mL, Experiment 2 [7]: 83% | Mutated/Wild type (%) of cyclic AMP produced, TSH 0.1 ng/mL, Experiment 1 [7]: 87% | Mutated/Wild type (%) of cyclic AMP produced, TSH 0.1 ng/mL, Experiment 2 [7]: 84% | Mutated/Wild type (%) of cyclic AMP produced, TSH 0.3 ng/mL, Experiment 1 [7]: 80% | Mutated/Wild type (%) of cyclic AMP produced, TSH 0.3 ng/mL, Experiment 2 [7]: 75% | Mutated/Wild type (%) of cyclic AMP produced, TSH 1 ng/mL, Experiment 1 [7]: 70% | Mutated/Wild type (%) of cyclic AMP produced, TSH 1 ng/mL, Experiment 2 [7]: 60% | Mutated/wild type (%) of cyclic AMP produced; TSH 3 ng/mL; Experiment 1 [7]: 66% | Mutated/wild type (%) of cyclic AMP produced; TSH 3 ng/mL; Experiment 2 [7]: 64% | Cyclic AMP produced, TSH 0.01 ng/mL, Experiment 1 [8]: 1.93 pmol/mL | Cyclic AMP produced, TSH 0.01 ng/mL, Experiment 2 [8]: 1.56 pmol/mL | Cyclic AMP produced, TSH 0.03 ng/mL, Experiment 1 [8]: 2.88 pmol/mL | Cyclic AMP produced, TSH 0.03 ng/mL, Experiment 2 [8]: 2.76 pmol/mL | Cyclic AMP produced, TSH 0.1 ng/mL, Experiment 1 [8]: 7.51 pmol/mL | Cyclic AMP produced, TSH 0.1 ng/mL, Experiment 2 [8]: 7.04 pmol/mL | Cyclic AMP produced, TSH 0.3 ng/mL, Experiment 1 [8]: 22.3 pmol/mL | Cyclic AMP produced, TSH 0.3 ng/mL, Experiment 2 [8]: 17.3 pmol/mL | Cyclic AMP produced, TSH 1 ng/mL, Experiment 1 [8]: 45.7 pmol/mL | Cyclic AMP produced, TSH 1 ng/mL, Experiment 2 [8]: 49.2 pmol/mL | Cyclic AMP produced; TSH 3 ng/mL; Experiment 1 [8]: 54 pmol/mL | Cyclic AMP produced; TSH 3 ng/mL; Experiment 2 [8]: 84.7 pmol/mL | Mutated/Wild type (%) of cyclic AMP produced, TSH 0.01 ng/mL, Experiment 1 [8]: 158% | Mutated/Wild type (%) of cyclic AMP produced, TSH 0.01 ng/mL, Experiment 2 [8]: 77% | Mutated/Wild type (%) of cyclic AMP produced, TSH 0.03 ng/mL, Experiment 1 [8]: 156% | Mutated/Wild type (%) of cyclic AMP produced, TSH 0.03 ng/mL, Experiment 2 [8]: 141% | Mutated/Wild type (%) of cyclic AMP produced, TSH 0.1 ng/mL, Experiment 1 [8]: 154% | Mutated/Wild type (%) of cyclic AMP produced, TSH 0.1 ng/mL, Experiment 2 [8]: 156% | Mutated/Wild type (%) of cyclic AMP produced, TSH 0.3 ng/mL, Experiment 1 [8]: 128% | Mutated/Wild type (%) of cyclic AMP produced, TSH 0.3 ng/mL, Experiment 2 [8]: 128% | Mutated/Wild type (%) of cyclic AMP produced, TSH 1 ng/mL, Experiment 1 [8]: 86% | Mutated/Wild type (%) of cyclic AMP produced, TSH 1 ng/mL, Experiment 2 [8]: 114% | Mutated/wild type (%) of cyclic AMP produced; TSH 3 ng/mL; Experiment 1 [8]: 76% | Mutated/wild type (%) of cyclic AMP produced; TSH 3 ng/mL; Experiment 2 [8]: 100% | % inhibition of TSH stimulation; TSH (2), run at the end of assay [9]: 17% | Mutated/Wild type (%) of cyclic AMP produced, TSH 0.01 ng/mL [9]: 470% | Mutated/Wild type (%) of cyclic AMP produced, TSH 0.03 ng/mL [9]: 369% | Mutated/Wild type (%) of cyclic AMP produced, TSH 0.1 ng/mL [9]: 271% | Mutated/Wild type (%) of cyclic AMP produced, TSH 0.3 ng/mL [9]: 188% | Mutated/Wild type (%) of cyclic AMP produced, TSH 1 ng/mL [9]: 129% | Mutated/wild type (%) of cyclic AMP produced; TSH 3 ng/mL [9]: 110% | Mutated/wild type (%) of cyclic AMP produced; TSH (2) 3 ng/mL, run at the end of assay [9]: 51% | Mutated/wild type (%) of cyclic AMP produced; TSH 3 ng/mL ([9]; record 2): 67% | Cyclic AMP produced (pmol/mL), TSH 0.01 ng/mL [10]: 4.8 pmol/mL | Cyclic AMP produced (pmol/mL), TSH 0.03 ng/mL [10]: 3.55 pmol/mL | Cyclic AMP produced (pmol/mL), TSH 0.1 ng/mL [10]: 4.82 pmol/mL | Cyclic AMP produced (pmol/mL), TSH 0.3 ng/mL [10]: 11.9 pmol/mL | Cyclic AMP produced (pmol/mL), TSH 1 ng/mL [10]: 34.6 pmol/mL | Cyclic AMP produced (pmol/mL), TSH 3 ng/mL [10]: 58.3 pmol/mL | Mutated/Wild type (%), TSH 0.01 ng/mL [10]: 308% | Mutated/Wild type (%), TSH 0.03 ng/mL [10]: 147% | Mutated/Wild type (%), TSH 0.1 ng/mL [10]: 118% | Mutated/Wild type (%), TSH 0.3 ng/mL [10]: 104% | Mutated/Wild type (%), TSH 1 ng/mL [10]: 76% | Mutated/Wild type (%), TSH 3 ng/mL [10]: 75% | Cyclic AMP produced (mean of duplicate), TSH 3 ng/mL [11]: 71.7 pmol/mL | Mutated/Wild type (%) of cyclic AMP produced, TSH 0.01 ng/mL [11]: 243% | Mutated/Wild type (%) of cyclic AMP produced, TSH 0.03 ng/mL [11]: 224% | Mutated/Wild type (%) of cyclic AMP produced, TSH 0.1 ng/mL [11]: 115% | Mutated/Wild type (%) of cyclic AMP produced, TSH 0.3 ng/mL [11]: 67% | Mutated/Wild type (%) of cyclic AMP produced, TSH 1 ng/mL [11]: 69% | Mutated/wild type (%) of cyclic AMP produced; TSH 3 ng/mL [11]: 66%
